The source of these data is the nanobody polyreactivity screen of Harvey et al. (2022).

This series can be described thus: yeast display, Sf9 membrane polyspecificity reagent, FACS + sequencing; frameworks hold sequencing errors. A digest of the protocol:
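A synthetic nanobody library was expressed on Saccharomyces cerevisiae BJ5465 by galactose induction for 36–48 hours. The library was stained for 1 hour at 4 °C with 10% biotinylated, detergent-solubilized Sf9 membrane reagent and enriched with streptavidin microbeads before FACS. Low and high (top ~1%) gates were set on anti-HA fluorescence for expression and streptavidin fluorescence for reagent binding, and each polyreactivity label reflects the gate of origin.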
As to “QVQLVESGGGLVQAGGSLRLSCAASGSIFGYYAMGWYRQAPGKERELVAAISGSGGSTYYADSVKGRFTISRDNAKNTVYLQMNSLKPEDTAVYYCDRVRGGYDKMYYWGQGTQVTVSS”, the “polyreactivity (PSR sort gate)” value is “high polyreactivity”.

As to “QVQLVESGGGLVQAGGSLRLSCAASGSTFYGYALGWYRQAPGKERELVAAITRSGGSTYYADSVKGRFTISRDNAKNTVYLQMNSLKPEDTEVYYCNKYGYKGGVGYDYWGQGTQVTVSS”, the “polyreactivity (PSR sort gate)” value is listed as “high polyreactivity”.

With “QVQLVESGGGLVQAGGSLRLSCAASGSTLVIYAMGWYRQAPGKEREFVAAIRWSTGRTYYADSVKGRFTISRDNAKNTVYLQMNSLKPEDTAVYYCNASYWAPNSLPDGFRYDSWGQGTQVTVSS”, the “polyreactivity (PSR sort gate)” value is “high polyreactivity”.

With “QVQLVESGGGIVQAGGSLRLSCAASGITFFYYAMGWYRQAPGKERELVASISSGGSTYYADSVKGRFTISRDNAKNTVYLQMNSLKPEDTAVYYCAAPTGWYPAYGEYEYWGQGTQVTVSS”, the “polyreactivity (PSR sort gate)” value was “low polyreactivity”.

Turning to “KVQLVESGGGLVQSGVSLRLSCAASGYTFEYNAMGWYIQAPGKEREFVSTITASGDSTYYAVSVKGRFTMSRDNAKNTVYFQMNSLKPEDTAVYYCAVDCAYLDDYSFTWDDYWGQGTQVTVSS”, the “polyreactivity (PSR sort gate)” value was “low polyreactivity”.

For the sequence “QVQLVESGGGLVQAGGSLRLSCAASGITFRGYAMGWYRQAPGKERELVASITNTDSTYYADSVKGRFTISRDNAKNTVYLQMNSLKPEDTAVYYCAARRGRKYGYWGQGTQVTVSS”, the “polyreactivity (PSR sort gate)” value is “high polyreactivity”.

“QVHLVESGGGLVQAGGSLRLSCAASGRTFGYYAMGWYRQAPGKERELVAAITRTGGSTHYADSVKGRFTISRDNAKNTVYLQMNSLKPEDTAVYYCAADKRGTVYLSSFWMDYWGQGTQVTVSS”: the “polyreactivity (PSR sort gate)” value was “low polyreactivity”.

On to “QVQLVESGGGLVQAGGSLRLSCASSVRTLAYNSRGCYRQATGKERELVASITSGGSTNYADSVKGRFTISRDNAKNTVYLQMNSLKPEDTAVYYCNKDGKYHRVLYDYWGQGTQVTVSS”, for which the “polyreactivity (PSR sort gate)” value is “low polyreactivity”.

Turning to “QVQLVESGGGLVHAGGSLRLSCAASGSIFSIYAMGWYRQAPGTERELVAAITKSGGSTYYADSVKGRFTISRDNAKNTVYLQMNSLKPEDTAVYYCAAEPQHYVGYYYWGQGNQVTVSS”, the “polyreactivity (PSR sort gate)” value is “high polyreactivity”.

In the case of “QVQLVESGVGLVQAGGSLRLSCAASGLTFYSYAMGWSRQAPGKERELVATISRNGGPTRYADSVKGRFTISRDNAKNTVYLQMNSLKPEDTAVYYCTYVQSGEYDYWGQGTQVTVSS”, the “polyreactivity (PSR sort gate)” value was “high polyreactivity”.

In the case of “QVQLVESGGGLVQAGGSLRLSCAASGSTFQTDTMGWYRQAPGKERELVASITWRGGRTYYADSVKGRFTISRDNAKNTVYLQMNSLKPEDTAVYYCAAVTFSYDGYDYWGQGTQVTVSS”, the “polyreactivity (PSR sort gate)” value is reported as “low polyreactivity”.

Regarding “QVQLVESGGGLVQAGGSRRLSCAASGRSFTRYAMGWYRQAPGKERVLVAAITSSGRTYYADSVKGRFTISRDNAKNTVYLQMNRLKPEDTAVYYCAKYRANALNYANRGAGDYWGQGTQVTVSS”, the “polyreactivity (PSR sort gate)” value was “high polyreactivity”.

As for “QVQLVESGGALVQAGGSLRLSCAASGRTFGLTAMGWYRQAPGKERELVAAITWSDDDTYYADSVKARFTNSRDNAKNTVYLQMNSLKPEDTAVYYCAATYPYRQYDYWGQGTQVTVSS”, the “polyreactivity (PSR sort gate)” value was “low polyreactivity”.

With “QVQLVESGGGLVQAAGSLRLSCAAYGGIFYWYAMGWYRQAPGKVRELVAVITLSGGSTDYADSVKGRFTISRDNAKNTVSLQMNSLKPEDTAFYYCAAEAYSYYPGTYEDDYWGQGTQVTVSS”, the “polyreactivity (PSR sort gate)” value is on record as “low polyreactivity”.

Consider “QVQLVESGGGLVQAGGSLRLSCAASGRTSYTYTMGWYRQAPGKERELVAAISWNAGSTYYADSVKGRFTISRDNAKNTVSLQMNSLKPEDTAVYYCNRRIFGGQRMYYWGQGTQVTVSS”, for which the “polyreactivity (PSR sort gate)” value is listed as “high polyreactivity”.

As to “QVQLVESGVGLVQAGGSLRLSCAASGFIFYPNAMGWYRQAPGKEREWVAVITGGGSTRYADSVKGRFTISRDNAKNTVYLQMNSLKPEDTAVYYCAVGTVYLTYRGYEYWGQGTQVTVSS”, the “polyreactivity (PSR sort gate)” value is “high polyreactivity”.
